Experimental findings from patent US20190248902A1 (published 2019) are described below.

Positions count from the first letter of the chain named.

In general, % Inhibition refers to the change of the read-out against control, counted positive when it falls. Read a high % Inhibition as a strong effect. What is called IC50 is the concentration at which inhibition is half-maximal.

The labels stand for the following.
T1: human ASGR-1 (human, UniProt P07306 1-291)
T1 construct: Stably expressed on CHO-S cells (CHO-S:huASGR-1); The method text says human or mouse ASGR-1 cells were used; also called huASGR-1; hASGR-1
T1 sequence: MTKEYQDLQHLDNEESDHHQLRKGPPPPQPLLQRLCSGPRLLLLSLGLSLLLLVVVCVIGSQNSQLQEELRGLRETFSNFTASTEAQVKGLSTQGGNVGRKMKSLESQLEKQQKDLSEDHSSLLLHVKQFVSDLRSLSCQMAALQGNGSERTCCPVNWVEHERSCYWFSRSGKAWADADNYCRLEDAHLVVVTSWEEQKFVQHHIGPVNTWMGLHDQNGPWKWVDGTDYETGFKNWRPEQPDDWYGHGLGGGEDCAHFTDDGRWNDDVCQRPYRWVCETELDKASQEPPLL

B1: 12D2 (antibody, V domains shown)
VH: EVQLVESGGGLVKPGGSLRLSCAASGFTFSSYSMNWVRQAPGKGLEWVSSISSSSSYIYYADSVKGRFTISRDNAKNSLYLQMNSLRAEDTAVYYCARLGDYWGQGTLVAVSS
VL: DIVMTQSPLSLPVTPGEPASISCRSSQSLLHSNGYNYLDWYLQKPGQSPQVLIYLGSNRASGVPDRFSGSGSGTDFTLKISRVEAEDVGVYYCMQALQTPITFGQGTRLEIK
B2: 176H4 (antibody, V domains shown)
VH: QVQLVESGGGVVQPGRSLRLSCAASGFTFSSYGMHWVRQAPGKGLEWVAIIWYDGSYKYYADSVKGRFTISRDNSKNTLYLQMSSLRAEDTAVYYCARDAHDFWSGYFAYWGQGALVTVSS
VL: DIVMTQTPLSLSVTPGQPASISCKSSQSLLHGDGKTYLYWYLQKPGQPPQLLIYEVSNRFSGVPDRFSGSGSGTDFTLKISRVEAEDVGIYYCMQSIQIPWTFGQGTRVEIK
B3: 54E9 (antibody, V domains shown)
VH: QVQLVQSGAEVKKPGASVKVSCKASGYTFNSYGISWVRLAPGQGLEWMGWISAYNGNTKNAQKLQGRVTMTTDTSTSTAYMELRSLRSDDTAVYYCARHDFWSGYYKGMDVWGQGTTVTVSS
VL: not shown
B4: 75G3 (antibody, V domains shown)
VH: QVQLQQWGAGLLKPSETLSLTCAVYGGSLSGSYWSWIRQPPGKGLEWIGEINLSGSTNYNPSLKSRVTISVDTSKSQFSLTLRSVTAADTAVYYCARDYGGLDYWGQGTLVTVSS
VL: EIVLTQSPGTLSLSPGERATLSCRARQNVDSSYLAWYQQKPGQAPRLLIYGASSRATGIPDRFSGSGSGTDFTLTISRLEPEDFAVFYCQQYERSPWTFGQGTKVEIK
B5: 22G5 (antibody, V domains shown)
VH: EVQLLESGGGLVQPGGSLRLSCAASGFTFSSYAMNWVRQAPGMGLEWVSVISRSGGYTYYADSVKGRFTISRDNSKNTLYLQMNSLRAEDTAVYYCASRLAVAGSEAFDIWGQGTLVTVSS
VL: DIQMTQSPSSLSASVGDRVTITCRASQNISSYLNWYQQKQGKAPKLLIYAASSLQNGVPSRFSGRGSGTDFTLTISSLQPEDFATYYCQQSYRTPLFTFGPGTKVDFK
B6: 190F8 (antibody, V domains shown)
VH: QVQLVESGGGVVQPGRSLRLSCAASGFTFSTYGMHWVRQAPGKGLEWVAVIWYDGSNKNYADSVKGRFTISRDNSKNTLYLQMNSLRAEDTAVYYCARDQGVGYDGLDVWGQGTTVTVSS
VL: DIQMTQSPSSLSASVGDRVTITCRTSQGIGNYLAWFQQKPGKAPKSLLYKASSLQSGVPSKFSGSGSGTDFTLTISSLQPEDFATYYCQQYMTYPLTFGGGTKVEIK
B7: 191G10 (antibody, V domains shown)
VH: B6 VH with T31S
VL: B6 VL with N31K, A51V
B8: 198G3 (antibody, V domains shown)
VH: B6 VH with R19K, S56T, Y80C
VL: B6 VL with T5A, N31K, S56G
B9: 191G1 (antibody, V domains shown)
VH: B6 VH with T31S, K58E, N59H, Q100R, D105Y
VL: B6 VL with T25A, G30S, L48I, K50A, Q90H, M92L
B10: 56E5 (antibody, V domains shown)
VH: QVQLVQSGAEVKKPGASVKVSCQASGYTFTGYHMHWVRQAPGQGLEWMGWINPNNNATNYAQKFQGRVTMTRDTSISTAYMELRRLRSDDTAVYHCARDGTSSFDYWGQGTLVTVSS
VL: DIQMTQSPSSVSASVGDRVTITCRASQGIRKWLAWYQQKPGKAPKLLIYAASSLQSGVPSRFSGSGSGTDFTLTISSLQPEDFATYYCQQANSFPFTFGPGTKVDIK
B11: 72G9 (antibody, V domains shown)
VH: EVQLVESGGGLVKPGGSLRLSCAASGFTFSSYSMNWVRQAPGKGLEWVSSISGSSSYIYYADSVKGRFTISRDNAKNSLYLQMNSLRAEDTAVYFCARGGSRGFDPWGQGTLVTVSS
VL: B10 VL with V11L, G28S, R30T, K31S, W32Y, A34N, A50T, A91S, N92H
B12: 7E11 (antibody, V domains shown)
VH: QVQLVESGGGVVQPGRSLRLSCAASGFTFSSFGMHWVRQAPGKGLEWVAIIWHDGSNKYYADSVKGRFTISRDNSNNTLYLQMSSLRAEDTAVYYCARDLSMGGMDVWGQGTTVTVSS
VL: DIQMTQSPSSLSASVGDRVTIACRASQNIISYLNWYQQKPGKAPKFLIYTASSLQSGVPSRFSGSGSGTDFTLTISSLQPEDFAIYYCQQTYSTPLTFGGGTKVEIK
B13: 25A4 (antibody, V domains shown)
VH: QVLLVQSGAEVKRPGASVKVSCKASGYTFTNYDINWVRQATGQGLEWMGWMYPNSGNTGYAQKFQGRVTMTRNTSISTAYMELSSLRSEDTAVYYCASSSGWYYFDYWGQGTLVTVSS
VL: DIVMTQFPDSLAVSLGERATIKCKSSQSVLYSSHNNNYLAWYQQKPGQPPKLLLYWASTRESGVPDRFSGSGSGTEFTLTISSLEAEDVAVYYCQQYYSTPPTFGQGTKVEIK
B14: 26C4 (antibody, V domains shown)
VH: B13 VH with L3Q, R13K, T41S, Y52N, K63R, S77N
VL: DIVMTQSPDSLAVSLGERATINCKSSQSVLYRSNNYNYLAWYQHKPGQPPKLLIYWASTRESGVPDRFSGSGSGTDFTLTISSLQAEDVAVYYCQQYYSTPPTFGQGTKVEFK
B15: 29H8 (antibody, V domains shown)
VH: B13 VH with L3Q, K12Q, R13K, Y52N, K63R, T78A
VL: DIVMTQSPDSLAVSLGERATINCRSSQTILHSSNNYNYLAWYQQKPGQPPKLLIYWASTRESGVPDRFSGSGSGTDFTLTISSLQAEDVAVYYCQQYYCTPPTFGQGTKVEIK
B16: 48B12 (antibody, V domains shown)
VH: EVQLLESGGGLVQPGGSLRLSCAASGFTFSSYAMNWVRQAPGKGLEWVSAISGRGGNTFYADSVKGRFTISRDNSKNTLYLQMNSLRAEDTAVYYCAKRETYNWNYEGFDYWGQGTLVTVSS
VL: SYELTQPPSVSVSPGQTARITCSGDALPKKYAYWYQQKSGQAPVLVIYEDSKRPSGIPERFSGSSSGTMATLTISGAQVEDEADYYCNSTDSSGNHVVFGGGTKLTVL
B17: 184E7 (antibody, V domains shown)
VH: QVQLVQSGAEVKTPGASVKVSCRASGYTFTSYNMHWVRQVPGQGLEWMGWINPNNGGSNYTQKFQGRVTMTRDTSISTAYMELSRLRSDDTAVYYCARKFGDWGQGTLVTVSS
VL: DIQMTQSPSSRSASIGERVTITCRASQGISNYLAWIQQKPGTAPKSLIYAASSLQSGVSSRFSGSGFGTDFTITISSVQREDFATYYCQQYNGYPFTFGHGTKVDIK

One test concerns the target T1, human ASGR-1. The experiment in a line: FACS ligand blocking on CHO-S ASGR-1 cells; competitor biotinylated asialofetuin. The protocol:
(§1) All ASGR-1 antibodies that bound either human or mouse ASGR-1 stable CHO—S cells were then tested for ligand blocking using both a protein ligand and a synthetic sugar ligand. The method in brief is as follows: first, 20 ul of either CHO-Shuman or mouse ASGR-1 cells were added to wells of a 384 well plate (30 k cells/well) followed by spin and discarding the supernatant. Second, 10 ul of the antibodies (either purified from hybridoma supernatants or made recombinantly) were added in duplicate to the cells in a dilution series (200 nM top concentration, 1:2 serial dilution, 11 point curve) and were incubated for 30 min at 4 C. […] After 30 min incubation at 4C, the plate was spun and washed twice with FACS buffer+1 mM CaCl2 followed by the detection streptavidin-AF647 at 1:1000 dilution. After 30 min at 4C, the cells were spun and washed once and then 60 ul PI added at 1:1000 dilution and the plates delivered to a core flow cytometry facility. The plates were read and processed similarly to the cell binding method except the signal now represents an inhibition curve and typically decreases a function of increasing antibody concentration. IC50 nM potency and % Inhibition were reported. […] Differences in the ability of antibodies to block these two ligands could occur as a result of differences in, for example, avidity stemming from differences in the number and/or orientation of the ASGR binding terminal sugar residues of each ligand, steric hindrance between antibody and each ligand, and/or changes in the conformation of ASGR induced by antibody binding that selectively alters the binding of each ligand.
For the molecule B1, the “% Inhibition” value was determined as 20% and the IC50 was found to be 10 nM.
On to B2, for which the “% Inhibition” value turned out to be 99%.
As for B3, the “% Inhibition” value stood at 75% and the IC50 worked out at 50 nM.
For B4, in that order: 99% and 29 nM.
Turning to B5, the “% Inhibition” value stood at 99%.
With B6, the “% Inhibition” value amounted to 98% and the IC50 worked out at 34 nM.
For the molecule B7, the “% Inhibition” value came to 99% and the IC50 amounted to 27 nM.
As to B8, the “% Inhibition” value was 99% and the IC50 was 26 nM.
B9: the “% Inhibition” value was determined as 99% and the IC50 is 24 nM.
For B10, the “% Inhibition” value stood at 99% and the IC50 was 23 nM.
As to B11, the “% Inhibition” value was determined as 20% and the IC50 came out at 53 nM.
For B12, the “% Inhibition” value stood at 99% and the IC50 amounted to 13 nM.
As to B13, the “% Inhibition” value was 99% and the IC50 worked out at 11 nM.
The like results for B14 were, in that order, 99% and 6.6 nM.
The like results for B15 were, in that order, 99% and 7 nM.
The like results for B16 were, in that order, 99% and 19 nM.
For the molecule B17, the “% Inhibition” value came out at 99% and the IC50 is 23 nM.

The next test concerns the target T1, human ASGR-1. The experiment in a line: FACS ligand blocking on CHO-S ASGR-1 cells; labelled ligand biotin-GalNAc-PAA (synthetic sugar). The protocol:
as §1
With B1, the “% Inhibition” value stood at 10% and the IC50 worked out at 2.1 nM.
On to B2, for which the “% Inhibition” value was 79%.
On to B3, for which the “% Inhibition” value is 19% and it took 100 nM to reach half-maximal inhibition (IC50).
Consider B4, for which the “% Inhibition” value stood at 99% and the IC50 stood at 115 nM.
Regarding B5, the “% Inhibition” value amounted to 93%.
In the case of B6, the “% Inhibition” value is 83% and the IC50 is 44 nM.
Consider B7, for which the “% Inhibition” value was found to be 99% and the IC50 came out at 56 nM.
Turning to B8, the “% Inhibition” value amounted to 81% and half-maximal inhibition (IC50) required 5 nM.
Turning to B9, the “% Inhibition” value is 78% and half-maximal inhibition (IC50) required 62 nM.
For the molecule B10, the “% Inhibition” value was 99% and the IC50 is 45 nM.
As to B11, the “% Inhibition” value stood at 20% and inhibition was half-maximal at 24 nM (IC50).
Consider B12, for which the “% Inhibition” value is 37% and 40 nM corresponded to half-maximal inhibition (IC50).
On to B13, for which the “% Inhibition” value worked out at 77% and half-maximal inhibition (IC50) was put at 40 nM.
The like results for B14 were, in that order, 83% and 36 nM.
Consider B15, for which the “% Inhibition” value stood at 99% and the IC50 was determined as 17 nM.
For B16, the “% Inhibition” value stood at 94% and 86 nM corresponded to half-maximal inhibition (IC50).
On to B17, for which the “% Inhibition” value was determined as 99% and the IC50 is 10 nM.
